# Data taken from US20160031978.
# Target: Δ144-273 tau (full-length tau with deletion of amino acids 144-273) (UniProt P10636)
# Sequence (P10636 whole entry, looked up, stated change not applied, the tested form may be a part): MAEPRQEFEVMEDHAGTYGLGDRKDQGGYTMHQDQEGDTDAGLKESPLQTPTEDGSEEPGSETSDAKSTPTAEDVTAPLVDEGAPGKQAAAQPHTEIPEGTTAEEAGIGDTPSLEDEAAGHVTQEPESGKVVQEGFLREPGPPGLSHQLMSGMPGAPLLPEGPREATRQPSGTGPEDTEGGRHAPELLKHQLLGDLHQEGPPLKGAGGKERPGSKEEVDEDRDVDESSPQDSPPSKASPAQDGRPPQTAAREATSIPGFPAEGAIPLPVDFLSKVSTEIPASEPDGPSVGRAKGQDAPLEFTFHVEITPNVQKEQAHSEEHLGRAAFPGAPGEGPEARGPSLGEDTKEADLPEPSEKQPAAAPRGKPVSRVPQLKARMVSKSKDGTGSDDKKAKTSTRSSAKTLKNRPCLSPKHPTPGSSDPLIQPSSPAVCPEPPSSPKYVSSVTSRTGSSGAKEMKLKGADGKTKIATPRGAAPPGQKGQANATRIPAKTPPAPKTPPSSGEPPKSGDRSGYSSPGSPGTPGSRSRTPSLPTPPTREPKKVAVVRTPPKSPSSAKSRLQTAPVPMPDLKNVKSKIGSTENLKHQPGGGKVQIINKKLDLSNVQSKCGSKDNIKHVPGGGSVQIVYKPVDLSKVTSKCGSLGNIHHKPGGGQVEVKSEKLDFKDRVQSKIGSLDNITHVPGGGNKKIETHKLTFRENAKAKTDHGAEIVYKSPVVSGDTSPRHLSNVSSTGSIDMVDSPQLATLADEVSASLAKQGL
substance,measurement,value
active fyn kinase,in vitro phosphorylation at Tyr18 (9G3/R1 immunoblot ratio),"When compared to wild-type tau, AT8 tau and A144-273 tau had a slower rate and lower maximal level of phosphorylation at Tyr18"
